Data taken from patent publication US20250011423A1 (ASCENDO BIOTECHNOLOGY, published 2025).
Where a chain is given by its changes, count along the chain named.

T1: human TREML1 ECD (human, UniProt Q86YW5 16-162)
T1 construct: Any tags are not described; also called soluble TREML1; soluble TLT1
T1 sequence: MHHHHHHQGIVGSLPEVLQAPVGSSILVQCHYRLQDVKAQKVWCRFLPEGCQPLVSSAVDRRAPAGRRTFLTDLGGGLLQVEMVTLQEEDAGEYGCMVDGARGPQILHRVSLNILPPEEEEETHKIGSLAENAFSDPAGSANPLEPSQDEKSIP

T2: mouse TREML1 ECD (mouse, UniProt Q8K558 21-175)
T2 construct: also called murine TREML1 ECD
T2 sequence: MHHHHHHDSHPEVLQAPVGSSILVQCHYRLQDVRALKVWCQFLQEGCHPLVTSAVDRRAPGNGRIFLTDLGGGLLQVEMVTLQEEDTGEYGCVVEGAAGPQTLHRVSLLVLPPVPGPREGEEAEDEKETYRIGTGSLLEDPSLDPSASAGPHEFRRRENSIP

B1: Anti-TREML1 Antibody Clone 23F10 (antibody, V domains shown)
VH: EVQLQQSGPELVRPGASVKVSCKASGYIFTDYVIHWVKQKPGQGLEWFGYINPYTGGPKYSETARGKATLTSDSSSNTAYMVLTSLTSDDSAVYYCTRDFNYYVGAMDFWGQGTSVTVSS
VL: AAVLTQTPLSLPVSLGDQASISCRSTQSLVHSNGNTYVHWYLQKAGQSPKLLIYKVSNRFSGVPDRFSGSGSGTDFTLKISRVEAEDLGVYFCSQSTYVWTFGGGTKLEIE
notes: It was detected with anti-mouse IgG
B2: Anti-TREML1 Antibody Clone 29F4 (antibody, V domains shown)
VH: B1 VH with R65K, D89E
VL: B1 VL with A1G, R24K, S68I
notes: as for B1
B3: Anti-TREML1 Antibody Clone 26A6 (antibody, V domains shown)
VH: EVKLVESGGGLVQPGGSRKLSCAASGFTFSDYGMAWVRQAPGKGPEWIAFISNLAYRIYYADTVTGRFTISRENAKNTLYLEMSSLRSEDSAIYYCVREDYGNNGAMDYWGQGTSVTVSS
VL: DVLMTQTPLSLPVSLGDQASISCRSSQSIVHSNGNTYLEWYLQKPGQSPKLLIYKVSNRFSGVPDRFSGSGSGTDFTLKISRVEAEDLGVYYCFQGSHVPPTFGGGTKLEIK
notes: It was detected with anti-mouse IgG, so it is a mouse antibody
B4: Anti-TREML1 Antibody Clone 18D8 (antibody, V domains shown)
VH: EVQVQQSGPELVNPGASVRLSCKASGYIFTDYVIHWVRQKPGQGLEWIGYMNPYTDGPKYSDKIKDKAILTSDRSSNTVYMELRSLTSEDSAVYFCARDFNYYVGAMDFWGQGTSVTVSS
VL: DVVLTQTPLSLPVSLGDQASVSCRSSQSLLHSNGNTYLHWYLQKPGQSPKLLIYKVSNRFSGVPDRFTGSGSGTDFTLKISRVEAEDLGVYFCSQSTHIWTFGGGTKLEIK
notes: as for B1
B5: Anti-TREML1 Antibody Clone 27D3 (antibody, V domains shown)
VH: DVQLQQSGPELVKPGASVKMSCKASGYTFTEYVIHWVKQRPGQGLEWFGYFNPYTGGSKFNEKFKDKATLTSDRSSNTVYMELYSLTSEDSAVYYCARDFNYYVGAMDYWGQGTSVTVSS
VL: B4 VL with V3A, V21I, L30V, P45S, T68S, G73V, D75E, T97S, K107R
notes: as for B1
B6: Anti-TREML1 Antibody Clone 28A9 (antibody, V domains shown)
VH: EVQLQQSGPELVKPGASVKMSCKASGYTFTNYVMHWVKQKPGQGLEWIGYFNPYNGHAKYSEKFTGKATLTSDRSSSTAYMELNSLTSEDSAVYYCTRDFNYYVGAMDYWGQGTSVTVSS
VL: DVVMTQSPLSLPVNLGDHASISCRSSQSLIHSNGNTYLHWYLQKPGQSPKLLVYQVSKRFSGVPDRFSGSGSGTDFTLKISRVEAEDLGVYFCSQSTHIWTFGGGTTLEIK
notes: as for B1

Molecular target: T1, human TREML1 ECD
Experiment: solid phase binding assay (ELISA), antigen coated
Procedure: (§1) To investigate the TREML1/I-domain of CD11 b interaction, 5 μg/ml of recombinant I-domain of CD11 b (SEQ ID: 1) and BSA (negative control) proteins were coated separately on 96 well plates and incubated overnight at 4° C. Plates were added the blocking buffer (2% BSA in PBS) to avoid the nonspecific binding for 2 hours (hrs) at room temperature. A serial diluted TREML1 ECD was added and allowed to incubate at room temperature for 2 hrs. 1ug/ml of anti-TREML1 antibody (MAB2394, R&D systems) was added for 1 hr. Next, the secondary antibody with HRP labeling, anti-Rat IgG-HRP, was added to the plate and incubated for 30 minutes at room temperature. Plates were washed thrice with 0.05% tween 20 PBS buffer (PBST) between each step. Finally, TMB substrate was added and incubated for 10-15 min to detect HRP labeling antibody. After that, a stop solution of 1N HCL was added to stop the reaction. Absorbance at OD450/540 nm was measured by a microplate reader. To measure the half-maximal saturation binding of anti-TREML1 antibodies to TREML1, 5 μg/ml of human TREML1 ECD (SEQ ID: 2) or mouse TREML1 ECD (SEQ ID: 3) were coated on 96 well plates and incubated overnight at 4° C. Plates were added the blocking buffer (2% BSA in PBS) to avoid the nonspecific binding for 2 hr at room temperature. A serial diluted anti-TREML1 antibody was added and allowed to incubate at room temperature for 2 hr. Next, the secondary antibody with HRP labeling, anti-mouse IgG-HRP, was added to the plate and incubated for 30 minutes at room temperature. Plates were washed three times with 0.05% tween20 PBS buffer (PBST) between each step. Finally, TMB substrate was added and incubated for 10-15 min to detect HRP labeling antibody. After that, a stop solution of 1N HCL was added to stop the reaction. Absorbance at OD450/540 nm was measured by a microplate reader.

Point of comparison: B5, EC50 0.31 nM. Against it:
- B1 — within 1.5-fold, 0.27 nM
- B2 — 1.7-fold lower, 0.18 nM
- B3 — within 1.5-fold, 0.32 nM
- B4 — within 1.5-fold, 0.25 nM
- B6 — within 1.5-fold, 0.3 nM

Molecular target: T2, mouse TREML1 ECD
Experiment: solid phase binding assay (ELISA), antigen coated
Procedure: as §1

Point of comparison: B5, EC50 24.9 nM. Against it:
- B1 — 30-fold lower, 0.82 nM
- B2 — 26-fold lower, 0.94 nM
- B3 — 62-fold lower, 0.4 nM
- B4 — within 1.5-fold, 33.4 nM
- B6 — 10-fold lower, 2.48 nM
